Kd data for two substances are collected here from patent US20100227772.

The subject of this data set is Antennapedia homeodomain (YPWM motif + homeodomain, Antp residues 297-364 in plasmid pAop3). Particulars: FCCS.

Where two headings read alike, the source gives them in different places.

Take BS2 (16 bp): under “average of 3 saturation curves, single curve of FIG. 3 gives 8.6 nM”, the Kd amounted to 5.1 nM.
Take HB1 (36 bp): the Kd (average of 10 saturation curves, single curve of FIG. 2 gives 6.3 nM) is 3.6 nM.

As usually defined, the Kd is a measure of binding affinity in units of concentration.
